# In the supplement of paper PMC9233669:
# Variants at the floor of the assay were thinned out.
# Columns and labels:
# [1] = tested on: biotinyl-Phe-oxazolone; test: self-aminoacylation, catalytic enhancement (BFO) (fold over background); higher = more active; k-Seq, kA / k0A0; sequences stand for … in GGGAAUGGAUCCACAUCUACGAAUUC…UUCACUGCAGACUUGACGAAGCUG
# Method in brief: (§1)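 Working in 50 μL HEPES/NaCl/KCl/MgCl2/CaCl2 buffer with 5% acetonitrile at pH 6.9–7.0, mutagenized RNA pools (0.43 μM; 21-nt variable region) were reacted with 2–1250 μM of each biotinyl-aminoacyl-oxazolone for 90 minutes at room temperature. Streptavidin capture followed, with quantification by triplicate qPCR and Illumina sequencing. Catalytic enhancement is reported as median kA over the uncatalyzed rate, the low-activity peak of a bimodal Gaussian fit to the data.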
# [2] = tested on: biotinyl-Ile-oxazolone; test: self-aminoacylation, catalytic enhancement (BIO) (fold over background); higher = more active; k-Seq, kA / k0A0; sequences stand for … in GGGAAUGGAUCCACAUCUACGAAUUC…UUCACUGCAGACUUGACGAAGCUG
# Method in brief: as §1
# [3] = tested on: biotinyl-Met-oxazolone; test: self-aminoacylation, catalytic enhancement (BMO) (fold over background); higher = more active; k-Seq, kA / k0A0; sequences stand for … in GGGAAUGGAUCCACAUCUACGAAUUC…UUCACUGCAGACUUGACGAAGCUG
# Method in brief: as §1
# [4] = tested on: biotinyl-Val-oxazolone; test: self-aminoacylation, catalytic enhancement (BVO) (fold over background); higher = more active; k-Seq, kA / k0A0; sequences stand for … in GGGAAUGGAUCCACAUCUACGAAUUC…UUCACUGCAGACUUGACGAAGCUG
# Method in brief: as §1
# [5] = tested on: biotinyl-Leu-oxazolone; test: self-aminoacylation, catalytic enhancement (BLO) (fold over background); higher = more active; k-Seq, kA / k0A0; sequences stand for … in GGGAAUGGAUCCACAUCUACGAAUUC…UUCACUGCAGACUUGACGAAGCUG
# Method in brief: as §1
# [6] = tested on: biotinyl-Trp-oxazolone; test: self-aminoacylation, catalytic enhancement (BWO) (fold over background); higher = more active; k-Seq, kA / k0A0; sequences stand for … in GGGAAUGGAUCCACAUCUACGAAUUC…UUCACUGCAGACUUGACGAAGCUG
# Method in brief: as §1
Sequence,self-aminoacylation [1],self-aminoacylation [2],self-aminoacylation [3],self-aminoacylation [4],self-aminoacylation [5],self-aminoacylation [6]
AUUCACCUAGGUUAUCGGGUC [Fam2.2 aminoacylation ribozyme variant],1.59,1.2,1.13,1.08,1.11,0.944
AUUCACAUAGGUCAUCCGGUG [Fam2.2 aminoacylation ribozyme variant],55.9,5.32,7.79,5.53,9.85,7.74
ACUCAACUAGGUCAUCGGGUG [Fam2.2 aminoacylation ribozyme variant],48,5.56,5.62,4.88,6.97,5.38
AAGUUCGCUAUUAGUCGCAAG [Fam3.1 aminoacylation ribozyme variant],2.21,2,1.82,1.5,2.14,1.44
AAUUUGGCUAAUAGUCGCAAG [Fam3.1 aminoacylation ribozyme variant],2.14,1.79,1.82,1.7,1.96,1.99
AUUCGCCUAGGUCAUCGGGUC [Fam2.2 aminoacylation ribozyme variant],6.94,1.58,1.62,1.91,1.88,1.76
CCACACUUCAAGCUAUCCGUC [Fam1B.1 aminoacylation ribozyme variant],0.797,1.04,0.761,1.27,0.736,1.13
CGACAGUUCAAGCAAUCGGUC [Fam1B.1 aminoacylation ribozyme variant],2.42,1.48,1.19,1.53,1.45,2.43
AUUACCCUGGUUAUCCAGUGA [Fam2.1 aminoacylation ribozyme variant],74.4,5.5,11.5,5.13,11.6,14.2
AUUCACCUCGGUCACCGGGUG [Fam2.2 aminoacylation ribozyme variant],41.9,5,6.37,4.43,6.77,8.88
AUUCACGCAGGUCAUCGGGUG [Fam2.2 aminoacylation ribozyme variant],41.6,3.54,4.55,4.58,4.77,5.58
GAGUUUGCUAAUGGUCGCAAG [Fam3.1 aminoacylation ribozyme variant],2.82,0.99,0.779,1.02,0.903,1.16
AUUACCGUGUUCAUCGAGUGA [Fam2.1 aminoacylation ribozyme variant],20.2,3.72,6.78,3.92,6.23,8.08
AAGUUUGCUAAUAGUCGCUGG [Fam3.1 aminoacylation ribozyme variant],1.72,1.21,1.67,1.25,0.78,1.18
AUUCACUUAGGCCAUCGGGUG [Fam2.2 aminoacylation ribozyme variant],16,2.53,3.04,2.65,3.9,3.26
ACGUUCGCUAAUAGUCGCAAG [Fam3.1 aminoacylation ribozyme variant],1.62,1.84,1.24,1.91,1.96,2.21
AUUCACCUAGUUCCUCGGGUG [Fam2.2 aminoacylation ribozyme variant],19.7,2.06,2.42,2.06,3.31,2.63
AUUCCCCUGGUCCUCGAGUGA [Fam2.1 aminoacylation ribozyme variant],42.5,3.65,6.08,3.77,7.24,6.87
AUUACCCCGGUAAUCGAGUGA [Fam2.1 aminoacylation ribozyme variant],26.7,2.73,5.18,2.85,4.59,5.41
CCACACGACAAGCAAUCGGUC [Fam1B.1 aminoacylation ribozyme variant],0.767,0.924,0.948,1.37,0.697,0.908
CCACCCUUCCAGCAAUCGGUC [Fam1B.1 aminoacylation ribozyme variant],1.15,1.41,1.02,1.94,1.04,1.51
AUUCACCUAGGUCAGCGGGUU [Fam2.2 aminoacylation ribozyme variant],4.6,2.56,1.65,2.15,2.42,1.94

Sequence,self-aminoacylation [1],self-aminoacylation [2],self-aminoacylation [3],self-aminoacylation [4],self-aminoacylation [5],self-aminoacylation [6]
CCACACUGCAAGCAAGCGGUC [Fam1B.1 aminoacylation ribozyme variant],1.05,1.34,0.878,1.61,1.23,1
AUUAGCCUGGUCAUCGAGUUA [Fam2.1 aminoacylation ribozyme variant],1.15,1.36,1.41,1.24,1.27,0.867
AUUACCCGGGUCAUCGAGGGA [Fam2.1 aminoacylation ribozyme variant],3.47,1.46,1.32,1.32,1.61,0.834
CCACACUUCAAGCGAUCGGCC [Fam1B.1 aminoacylation ribozyme variant],20.2,3.31,4.7,5.25,2.6,7.01
AUUCGCCGAGGUCAUCGGGUG [Fam2.2 aminoacylation ribozyme variant],80.2,6.76,12.4,7.83,13.7,9.29
AUUACCCCGGUCACCGAGUGA [Fam2.1 aminoacylation ribozyme variant],95.8,5.59,12.7,4.77,13,12.3
AUUCACAUAGGUUAUCGGGUG [Fam2.2 aminoacylation ribozyme variant],40.2,3.23,5.32,3.67,6.69,5.37
AUUACCCUGGUCAUCGGGGGA [Fam2.1 aminoacylation ribozyme variant],44.2,4.75,7.12,5.36,9.21,10.7
CUACUUCAAACAAUCAGUUUG [Fam1A.1 aminoacylation ribozyme variant],15.7,0.803,0.779,0.73,0.861,6.56
CUAAUUCAAACAAUAGGUCUG [Fam1A.1 aminoacylation ribozyme variant],1.11,0.773,0.704,0.77,0.706,0.666
ACUCACGUAGGUCAUCGGGUG [Fam2.2 aminoacylation ribozyme variant],32.9,2.89,3.04,3.73,4.27,3.88
AAGUUUGCUAAUUGCCGCAAG [Fam3.1 aminoacylation ribozyme variant],1.02,1.87,1.47,1.44,1.35,2.73
AUGCGCCUAGGUCAUCGGGUG [Fam2.2 aminoacylation ribozyme variant],60.9,6.21,9.32,6.24,10.7,9.8
AUUCACCUAGGAGAUCGGGUG [Fam2.2 aminoacylation ribozyme variant],34.3,3.82,4.82,3.54,7.83,5.46
AUUCACCUAGGUCAUCACGUG [Fam2.2 aminoacylation ribozyme variant],23.1,2.03,3.99,2.62,4.54,3.56
AUUCACCUUGGUAAUCGGGUG [Fam2.2 aminoacylation ribozyme variant],24.4,2.23,3.95,2.35,5.19,3.98
CCACACUUCAAGCAGUCAGUC [Fam1B.1 aminoacylation ribozyme variant],0.947,0.788,0.562,0.91,0.717,0.54
CUACUCCAAACGAUCGGUCUG [Fam1A.1 aminoacylation ribozyme variant],0.979,0.854,0.643,0.812,0.91,0.445
AUUACCCUUGUCAGCGAGUGA [Fam2.1 aminoacylation ribozyme variant],28.6,2.94,5.08,3.3,6.14,6.54
AUUCACUUAGGUCAUCGGGUU [Fam2.2 aminoacylation ribozyme variant],6.63,1.59,1.78,1.65,1.69,1.47
AAGCUUGCUCAUAGUCGCAAG [Fam3.1 aminoacylation ribozyme variant],2.34,1.99,2.05,1.99,1.52,1.59
